molecular target: human neonatal Fc-receptor (FcRn) (human) (UniProt P55899); assay: FcRn affinity column chromatography
Sequence (P55899 24-297 limits assumed, chain 1 of 2): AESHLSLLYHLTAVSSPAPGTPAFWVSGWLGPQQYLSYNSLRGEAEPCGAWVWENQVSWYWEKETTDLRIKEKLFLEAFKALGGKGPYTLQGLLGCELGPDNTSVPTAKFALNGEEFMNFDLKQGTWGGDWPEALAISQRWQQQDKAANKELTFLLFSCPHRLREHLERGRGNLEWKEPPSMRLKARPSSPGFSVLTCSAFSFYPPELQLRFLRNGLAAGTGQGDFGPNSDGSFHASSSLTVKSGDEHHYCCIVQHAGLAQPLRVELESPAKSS
Sequence (P61769 21-119 limits assumed, chain 2 of 2, further chain): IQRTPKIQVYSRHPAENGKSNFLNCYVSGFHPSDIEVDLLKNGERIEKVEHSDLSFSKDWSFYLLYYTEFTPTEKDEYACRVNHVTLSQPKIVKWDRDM

Question: Which FcRn-affinity column retention time does the source give for “IgG1 Fc-region with L234A/L235A/P329G and symmetric Y436A” here?
Answer: Its FcRn-affinity column retention time is 41.3 min.

Question: How did the retention time turn out when “anti-HER2 antibody, symmetric mutation E430H” was run?
Answer: The retention time was 46.4 min.

Question: With “anti-HER2 antibody, symmetric mutation K288E” as the substance, how does the retention time read?
Answer: Its retention time is 45.2 min.

Question: For “anti-HER2 antibody, symmetric mutation K290H”, which retention time is on record?
Answer: Its retention time is 46.2 min.

Question: “anti-HER2 antibody, symmetric mutation K317H” was tested. Which retention time did it give?
Answer: The retention time was 46.3 min.

Question: Which retention time does the source give for “anti-HER2 antibody, symmetric mutation L309H” here?
Answer: Its retention time is 45.5 min.

Question: For “anti-HER2 antibody, symmetric mutation N434H”, which retention time is on record?
Answer: Its retention time is 52 min.

Question: With “anti-HER2 antibody, symmetric mutation Q311H” as the substance, how does the retention time read?
Answer: Its retention time is 46.3 min.

Question: With “anti-HER2 antibody, symmetric mutation R255D” as the substance, how does the retention time read?
Answer: The retention time was 41.4 min.

Question: How did the retention time turn out when “anti-HER2 antibody, symmetric mutation T256H” was run?
Answer: The retention time was 46 min.
